Test results reported in publication PMC10880117.
One block for each molecule: values may come before it.

Tests used:
[1] = molecular target: Human V95E HSC70 (HSPA8) (human) (UniProt P11142)
[2] = molecular target: Human WT HSC70 (HSPA8) (human) (UniProt P11142)

pseudo-Km of DnaJB4-stimulated ATPase activity (malachite green assay, 1 μM HSC70 titrated with DnaJB4, 37°C, Michaelis-Menten fit) [1]: 0.088 µM | pseudo-Km of DnaJB4-stimulated ATPase activity (malachite green assay, 1 μM HSC70 titrated with DnaJB4, 37°C, Michaelis-Menten fit) [2]: 0.092 µM
Molecule: DnaJB4 (from UniProt Q9UDY4 1-337) (natural protein)

stimulation of ATPase activity (malachite green assay, normalised percent) as BAG1 is titrated into HSC70 (1 μM) and DnaJB4 (0.1 μM); value at the highest concentration tested [1]: 25%
B1: BAG1 (natural protein)
chain: MAQRGGARRPRGDRERLGSRLRALRPGREPRQSEPPAQRGPPPSGRPPARSTASGHDRPTRGAAAGARRPRMKKKTRRRSTRSEELTRSEELTLSEEATWSEEATQSEEATQGEEMNRSQEVTRDEESTRSEEVTREEMAAAGLTVTVTHSNEKHDLHVTSQQGSSEPVVQDLAQVVEEVIGVPQSFQKLIFKGKSLKEMETPLSALGIQDGCRVMLIGKKNSPQEEVELKKLKHLEKSVEKIADQLEELNKELTGIQQGFLPKDLQAEALCKLDRRVKATIEQFMKILEEIDTLILPENFKDSRLKRKGLVKKVQAFLAECDTVEQNICQETERLQSTNFALAE
